Experimental data as given in US20170240635A1 (AGENCY FOR SCIENCE TECHNOLOGY AND RESEARCH, published 2017).

Legend:
[1] = biological target: T1, human PD-1 coupled to human Fc (human, UniProt Q15116 25-167, limits assumed); experiment: SPR (ProteOn XPR36); human PD-1-Fc immobilised, crude Fab extract flown over
T1 construct: also called human-PD-1 coupled to Fc; not shown: human Fc
Experimental: Briefly, human or mouse PD-1 coupled to human Fc was immobilised on a sensor chip compatible with the Proteon XPR36 bioanalyser (Biorad). Crude Fab extracts (or the control antibodies) were then flown onto the chip and the association/dissociation of each candidate Fab was then recorded and analysed, the affinity (KD) was calculated.

[2] = biological target: T2, human BTLA coupled to human Fc (human, UniProt Q7Z6A9 31-150, limits assumed); experiment: ELISA; antigen coated 350 ng/well, goat anti-human Fab-HRP, absorbance 450-670 nm
T2 construct: ELISA coating antigen; not shown: human Fc
T2 sequence (Q7Z6A9 31-150 limits assumed): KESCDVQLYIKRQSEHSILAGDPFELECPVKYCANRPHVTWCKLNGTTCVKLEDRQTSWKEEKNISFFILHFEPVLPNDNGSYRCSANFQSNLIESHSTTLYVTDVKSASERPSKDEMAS
Experimental: (§1) Anti-PD-1 antibodies were tested in an ELISA assay for their ability to bind to other members of the CD28 family.
(§2) Briefly, ELISA plates were coated with 350 ng/well of one of the following antigens coupled to human Fc in carbonate buffer: human PD-1, human PD-L1, human TIM-3, human LAG-3, human ICOS, human CTLA4, human BTLA, human CD28, mouse TIM-3, or rhesus PD-1. The plate was then blocked with a solution of casein. After extensive washes in PBS Tween-20, antibodies were added into the ELISA wells in the presence of 7% milk in PBS. After 90 minutes at room temperature under agitation and extensive washes, a goat anti-human Fab antibody coupled to HRP was added. One hour later, plates were washed and TMB substrate added. The reaction was stopped with 1M HCl and optical density measured at 450 nm with a reference at 670 nm.

[3] = biological target: T3, human TIM-3 coupled to human Fc (human, UniProt Q8TDQ0 22-200, limits assumed); experiment: as above
T3 construct: not shown: human Fc
Experimental: as §1, §2

[4] = biological target: T4, human CD28 coupled to human Fc (human, UniProt P10747 19-152, limits assumed); experiment: as above
T4 construct: ELISA coating antigen; not shown: human Fc
Experimental: as §1, §2

mTim3-Fc = biological target: T5, mTim3-Fc (mouse, UniProt Q8VIM0); experiment: as above
T5 construct: also called mouse TIM-3
T5 sequence (Q8VIM0 20-191 limits assumed): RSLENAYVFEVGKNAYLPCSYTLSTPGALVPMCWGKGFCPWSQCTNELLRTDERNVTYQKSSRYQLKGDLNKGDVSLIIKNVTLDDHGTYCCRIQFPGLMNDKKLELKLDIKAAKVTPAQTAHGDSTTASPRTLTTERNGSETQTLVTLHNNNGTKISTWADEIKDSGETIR
Experimental: as §1, §2

[5] = biological target: T6, human LAG-3 coupled to human Fc (human, UniProt P18627 23-450, limits assumed); experiment: as above
T6 construct: ELISA coating antigen; not shown: human Fc
T6 sequence (looked up): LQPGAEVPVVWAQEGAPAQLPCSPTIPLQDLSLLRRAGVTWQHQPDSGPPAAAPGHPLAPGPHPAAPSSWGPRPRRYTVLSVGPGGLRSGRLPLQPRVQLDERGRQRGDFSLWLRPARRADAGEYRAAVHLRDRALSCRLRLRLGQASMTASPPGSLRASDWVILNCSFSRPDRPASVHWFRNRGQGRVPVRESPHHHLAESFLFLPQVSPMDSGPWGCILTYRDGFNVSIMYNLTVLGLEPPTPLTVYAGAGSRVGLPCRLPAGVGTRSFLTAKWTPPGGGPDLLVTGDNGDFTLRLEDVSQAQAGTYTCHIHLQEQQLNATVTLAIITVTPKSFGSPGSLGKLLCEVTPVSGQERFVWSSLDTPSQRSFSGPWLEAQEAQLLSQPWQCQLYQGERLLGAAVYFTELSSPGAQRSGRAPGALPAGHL
Experimental: as §1, §2

hICOS-Fc = biological target: T7, hICOS-Fc (human, UniProt Q9Y6W8); experiment: as above
T7 construct: also called human ICOS
T7 sequence (antigen, looked up): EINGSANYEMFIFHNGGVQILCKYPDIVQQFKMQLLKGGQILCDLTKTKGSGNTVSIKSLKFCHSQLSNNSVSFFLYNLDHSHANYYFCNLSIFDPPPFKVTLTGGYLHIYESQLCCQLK
Experimental: as §1, §2

[6] = biological target: T8, human PD-L1 coupled to human Fc (human, UniProt Q9NZQ7 19-239, limits assumed); experiment: as above
T8 construct: ELISA coating antigen; not shown: human Fc
T8 sequence (Q9NZQ7 19-239 limits assumed): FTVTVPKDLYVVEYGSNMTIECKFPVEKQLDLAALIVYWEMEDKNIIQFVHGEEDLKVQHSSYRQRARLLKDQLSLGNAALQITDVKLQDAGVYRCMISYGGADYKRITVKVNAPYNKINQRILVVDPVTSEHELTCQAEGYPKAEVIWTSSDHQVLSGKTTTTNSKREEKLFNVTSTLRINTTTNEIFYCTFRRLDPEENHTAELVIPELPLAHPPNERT
Experimental: as §1, §2

hCTLA4-Fc [7] = biological target: T9, hCTLA4-Fc (human, UniProt P16410); experiment: ELISA; antigen coated 350 ng/well, Fab-containing supernatant, goat anti-human Fab-HRP, absorbance 450-670 nm
T9 construct: also called human CTLA-4; human CTLA4
T9 sequence (P16410 37-162 limits assumed): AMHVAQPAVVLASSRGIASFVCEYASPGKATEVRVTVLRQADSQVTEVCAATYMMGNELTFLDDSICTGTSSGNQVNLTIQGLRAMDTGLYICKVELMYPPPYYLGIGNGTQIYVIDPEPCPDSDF

hCTLA4-Fc [8] = biological target: T9, hCTLA4-Fc; experiment: ELISA; antigen coated 350 ng/well, goat anti-human Fab-HRP, absorbance 450-670 nm
Experimental: as §1, §2

T1 sequence (Q15116 25-167 limits assumed): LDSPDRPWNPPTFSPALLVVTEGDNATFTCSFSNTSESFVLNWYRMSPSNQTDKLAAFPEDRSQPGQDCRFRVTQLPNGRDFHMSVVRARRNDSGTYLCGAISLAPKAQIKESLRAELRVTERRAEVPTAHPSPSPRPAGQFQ

B1: anti-PD-1 antibody clone B6 (Fab) (Fab, V domains shown)
VH: QVQLVESGGGVVQPGRSLRLSCAASGFTFSSYGMHWVRQAPGKGLEWVAVISYDGSNKYYADSVKGRFTISRDNSKNTLYLQMNSLRAEDTAVYYCASDYGAGPYYYGMDVWGQGTTVTVSS
VL: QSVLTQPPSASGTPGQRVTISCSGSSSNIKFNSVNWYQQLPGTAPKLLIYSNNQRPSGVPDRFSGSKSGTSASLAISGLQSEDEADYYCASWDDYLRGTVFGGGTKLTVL
notes: Crude Fab extract in SPR
B1 was tested, and the Kd [1] was 0.26 nM, the binding result [2] was “no binding (tested: not given)” and the binding result [3] was “no binding (tested: not given)”. B1: no binding (tested: not given) [4]; no binding (tested: not given) (mTim3-Fc); no binding (tested: not given) [5]. B1: no binding (tested: not given) (hICOS-Fc); no binding (tested: not given) [6]; no binding (tested: not given) (hCTLA4-Fc [7]).

B2: anti-PD-1 antibody clone F2 (Fab) (Fab, V domains shown)
VH: QVQLVESGGGVVQPGRSLRLSCAASGFTFSSYGMHWVRQAPGKGLEWVAVISYDGSNKYYADSVKGRFTISRDNSKNTLYLQMNSLRAEDTAVYYCASDLGAGPYYYGMDVWGQGTTVTVSS
VL: QSVLTQPPSASGTPGQRVTISCSGSSSNIKFNSVNWYQQLPGTAPKLLIYSNNQRPSGVPDRFSGSKSGTSASLAISGLQSEDEADYYCSSWDDDARGTIFGGGTKLTVL
notes: Crude Fab extract in SPR
For B2, the Kd [1] was 0.11 nM, the binding result (hCTLA4-Fc [8]) was “no binding (tested: not given)” and the binding result [2] was “no binding (tested: not given)”. B2: no binding (tested: not given) [3]; no binding (tested: not given) [4]; no binding (tested: not given) (mTim3-Fc). B2: no binding (tested: not given) [5]; no binding (tested: not given) (hICOS-Fc); no binding (tested: not given) [6].

B3: anti-PD-1 antibody clone C4 (Fab) (Fab, V domains shown)
VH: QVQLVESGGGVVQPGRSLRLSCAASGFTFSSYGMHWVRQAPGKGLEWVAVISYDGSNKYYADSVKGRFTISRDNSKNTLYLQMNSLRAEDTAVYYCASDLGAGPYYYGLDVWGQGTTVTVSS
VL: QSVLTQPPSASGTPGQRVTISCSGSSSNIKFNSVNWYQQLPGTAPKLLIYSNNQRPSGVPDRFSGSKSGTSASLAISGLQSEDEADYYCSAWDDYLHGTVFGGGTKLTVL
notes: Crude Fab extract in SPR
With B3 the Kd [1] was 0.4 nM, the binding result [2] was “no binding (tested: not given)” and the binding result [3] was “no binding (tested: not given)”. B3: no binding (tested: not given) [4]; no binding (tested: not given) (mTim3-Fc); no binding (tested: not given) [5]. B3: no binding (tested: not given) (hICOS-Fc); no binding (tested: not given) [6]; no binding (tested: not given) (hCTLA4-Fc [7]).

B4: anti-PD-1 antibody clone E1 (Fab) (Fab, V domains shown)
VH: QVQLVESGGGVVQPGRSLRLSCAASGFTFSSYGMHWVRQAPGKGLEWVAVISYDGSNKYYADSVKGRFTISRDNSKNTLYLQMNSLRAEDTAVYYCASDLGAGPYYYGMDVWGQGTTVTVSS
VL: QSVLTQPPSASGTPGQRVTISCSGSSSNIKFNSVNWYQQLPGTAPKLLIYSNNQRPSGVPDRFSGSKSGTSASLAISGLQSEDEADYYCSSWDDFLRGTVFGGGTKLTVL
notes: Crude Fab extract in SPR
In the case of B4, the Kd [1] is reported as 0.21 nM, the binding result [2] is reported as “no binding (tested: not given)” and the binding result [3] is reported as “no binding (tested: not given)”. B4: no binding (tested: not given) [4]; no binding (tested: not given) (mTim3-Fc); no binding (tested: not given) [5]. B4: no binding (tested: not given) (hICOS-Fc); no binding (tested: not given) [6]; no binding (tested: not given) (hCTLA4-Fc [7]).

B5: anti-PD-1 antibody clone G1 (Fab) (Fab, V domains shown)
VH: QVQLVESGGGVVQPGRSLRLSCAASGFTFSSYGMHWVRQAPGKGLEWVAVISYDGSNKYYADSVKGRFTISRDNSKNTLYLQMNSLRAEDTAVYYCASDLGAGPYYYGMDVWGQGTTVTVSS
VL: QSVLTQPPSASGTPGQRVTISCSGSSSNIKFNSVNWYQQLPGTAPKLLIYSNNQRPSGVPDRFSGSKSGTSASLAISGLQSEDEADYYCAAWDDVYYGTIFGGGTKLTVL
notes: Crude Fab extract in SPR
B5 was tested, and the Kd [1] was 0.1 nM, the binding result (hCTLA4-Fc [8]) was “no binding (tested: not given)” and the binding result [2] was “no binding (tested: not given)”. B5: no binding (tested: not given) [3]; no binding (tested: not given) [4]; no binding (tested: not given) (mTim3-Fc). B5: no binding (tested: not given) [5]; no binding (tested: not given) (hICOS-Fc); no binding (tested: not given) [6].

B6: anti-PD-1 antibody clone D4 (Fab) (Fab, V domains shown)
VH: QVQLVESGGGVVQPGRSLRLSCAASGFTFSSYGMHWVRQAPGKGLEWVAVISYDGSNKYYADSVKGRFTISRDNSKNTLYLQMNSLRAEDTAVYYCASDLGAGPYYYGMDVWGQGTTVTVSS
VL: QSVLTQPPSASGTPGQRVTISCSGSSSNIKFNSVNWYQQLPGTAPKLLIYSNNQRPSGVPDRFSGSKSGTSASLAISGLQSEDEADYYCASWDDYVRGTMFGGGTKLTVL
notes: Crude Fab extract in SPR
B6 was tested, and the Kd [1] was 0.22 nM, the binding result [2] was “no binding (tested: not given)” and the binding result [3] was “no binding (tested: not given)”. B6: no binding (tested: not given) [4]; no binding (tested: not given) (mTim3-Fc); no binding (tested: not given) [5]. B6: no binding (tested: not given) (hICOS-Fc); no binding (tested: not given) [6]; no binding (tested: not given) (hCTLA4-Fc [7]).

B7: anti-PD-1 antibody clone G10 (Fab) (Fab, V domains shown)
VH: QVQLVESGGGVVQPGRSLRLSCAASGFTFSSYGMHWVRQAPGKGLEWVAVISYDGSNKYYADSVKGRFTISRDNSKNTLYLQMNSLRAEDTAVYYCASDYGAGPYYYGMDVWGQGTTVTVSS
VL: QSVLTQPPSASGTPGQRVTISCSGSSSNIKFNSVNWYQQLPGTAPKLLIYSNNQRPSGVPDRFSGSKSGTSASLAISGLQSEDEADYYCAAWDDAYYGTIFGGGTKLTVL
notes: Crude Fab extract in SPR
For B7, the Kd [1] was 0.27 nM, the binding result [2] was “no binding (tested: not given)” and the binding result [3] was “no binding (tested: not given)”. B7: no binding (tested: not given) [4]; no binding (tested: not given) (mTim3-Fc); no binding (tested: not given) [5]. B7: no binding (tested: not given) (hICOS-Fc); no binding (tested: not given) [6]; no binding (tested: not given) (hCTLA4-Fc [7]).

B8: anti-PD-1 antibody clone H4 (Fab) (Fab, V domains shown)
VH: QVQLVESGGGVVQPGRSLRLSCAASGFTFSSYGMHWVRQAPGKGLEWVAVISYDGSNKYYADSVKGRFTISRDNSKNTLYLQMNSLRAEDTAVYYCASDLGSGYYLYGMDVWGQGTTVTVSS
VL: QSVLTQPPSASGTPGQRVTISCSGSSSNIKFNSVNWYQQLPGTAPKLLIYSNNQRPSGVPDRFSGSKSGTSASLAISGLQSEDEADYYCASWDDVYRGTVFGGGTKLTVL
notes: Crude Fab extract in SPR
B8 was tested, and the Kd [1] was 0.27 nM, the binding result (hCTLA4-Fc [8]) was “no binding (tested: not given)” and the binding result [2] was “no binding (tested: not given)”. B8: no binding (tested: not given) [3]; no binding (tested: not given) [4]; no binding (tested: not given) (mTim3-Fc). B8: no binding (tested: not given) [5]; no binding (tested: not given) (hICOS-Fc); no binding (tested: not given) [6].
